Like-named read-outs stand apart in the source and are kept apart here. Where no end group is shown, it is not given here. [ ]: non-standard residue; d: D form. ΔPro = O=C(O)[C@@H]1C=CCN1; Aze = O=C(O)[C@@H]1CCN1
Legend:
Test in all cases: cell-based or functional assay
EGLN1 [1] = target: EGLN1
EGLN2 [2] = target: EGLN2
EGLN3 [3] = target: EGLN3
EGLN3 [4] = target: EGLN3; remark: listed apart in the source
EGLN1 [5] = target: EGLN1; remark: listed apart in the source
EGLN2 [6] = target: EGLN2; remark: listed apart in the source

B1: DTDLDTEALA8YIPADDDFQ (peptide)
peptide: DTDLDTEALA[Aze]YIPADDDFQ
EGLN1 [1]
  Activity (%)*: 11.4%
EGLN2 [2]
  Activity (%)*: 8.52%
EGLN3 [3]
  Activity (%): 80.1%

B2: DTDLDVEAYA8YIPADDDFQ (peptide)
peptide: DTDLDVEAYA[Aze]YIPADDDFQ
EGLN1 [1]
  Activity (%)*: 32.3%
EGLN2 [2]
  Activity (%)*: 27.2%
EGLN3 [3]
  Activity (%): 33.5%

B3: DTDLDLEAHApYIPADDDFQ (peptide)
peptide: DTDLDLEAHAPYIPADDDFQ
EGLN3 [4]
  Activity (%)*: 27%
EGLN1 [5]
  Activity (%)*: 34%
EGLN2 [6]
  Activity (%)*: 32.3%

B4: DTDLDVEAYApYIPADDDFQ (peptide)
peptide: DTDLDVEAYAPYIPADDDFQ
modifications: not fully specified; printed as DTDLDVEAYApYIPADDDFQ
EGLN3 [4]
  Activity (%)*: 44.5%
EGLN1 [5]
  Activity (%)*: 35.5%
EGLN2 [6]
  Activity (%)*: 32.4%

B5: DTDLDPEALApYIPADDDFQ (peptide)
peptide: DTDLDPEALAPYIPADDDFQ
modifications: not fully specified; printed as DTDLDPEALApYIPADDDFQ
EGLN3 [4]
  Activity (%)*: 76.6%
EGLN1 [5]
  Activity (%)*: 40.8%
EGLN2 [6]
  Activity (%)*: 37.4%

B6: DTDLDAEAVApYIPADDDFQ (peptide)
peptide: DTDLDAEAVAPYIPADDDFQ
EGLN3 [4]
  Activity (%)*: 35.6%
EGLN1 [5]
  Activity (%)*: 34%
EGLN2 [6]
  Activity (%)*: 26.3%

B7: DTDLDLEACApYIPADDDFQ (peptide)
peptide: DTDLDLEACAPYIPADDDFQ
EGLN3 [4]
  Activity (%)*: 49.4%
EGLN1 [5]
  Activity (%)*: 41.3%
EGLN2 [6]
  Activity (%)*: 40.4%

B8: DTDLDLEAAApYIPADDDFQ (peptide)
peptide: DTDLDLEAAAPYIPADDDFQ
EGLN3 [4]
  Activity (%)*: 30.2%
EGLN1 [5]
  Activity (%)*: 36.1%
EGLN2 [6]
  Activity (%)*: 30.9%

B9: DTDLDTEAYA8YIPADDDFQ (peptide)
peptide: DTDLDTEAYA[Aze]YIPADDDFQ
EGLN1 [1]
  Activity (%)*: 25.1%
EGLN2 [2]
  Activity (%)*: 17%
EGLN3 [3]
  Activity (%): 29.7%

B10: DTDLDLEALA4YIPADDDFQ (peptide)
peptide: DTDLDLEALA[ΔPro]YIPADDDFQ
EGLN1 [1]
  Activity (%)*: 124%
EGLN2 [2]
  Activity (%)*: 173%
EGLN3 [3]
  Activity (%): 74.4%

B11: DTDLDAEAIA8YIPADDDFQ (peptide)
peptide: DTDLDAEAIA[Aze]YIPADDDFQ
EGLN1 [1]
  Activity (%)*: 6.68%
EGLN2 [2]
  Activity (%)*: 1.88%
EGLN3 [3]
  Activity (%): 9.72%

B12: DTDLDAEAAA8YIPADDDFQ (peptide)
peptide: DTDLDAEAAA[Aze]YIPADDDFQ
EGLN1 [1]
  Activity (%)*: 10.3%
EGLN2 [2]
  Activity (%)*: 4.16%

B13: DTDLDGEALApYIPADDDFQ (peptide)
peptide: DTDLDGEALAPYIPADDDFQ
EGLN3 [4]
  Activity (%)*: 40.9%
EGLN1 [5]
  Activity (%)*: 37.3%
EGLN2 [6]
  Activity (%)*: 32%

B14: DTDLDIEAIA8YIPADDDFQ (peptide)
peptide: DTDLDIEAIA[Aze]YIPADDDFQ
EGLN1 [1]
  Activity (%)*: 18.3%
EGLN2 [2]
  Activity (%)*: 10%
EGLN3 [3]
  Activity (%): 31.2%

B15: DTDLDTEAFA8YIPADDDFQ (peptide)
peptide: DTDLDTEAFA[Aze]YIPADDDFQ
EGLN1 [1]
  Activity (%)*: 17.4%
EGLN2 [2]
  Activity (%)*: 8.9%
EGLN3 [3]
  Activity (%): 18.7%

B16: DTDLDVEAIA8YIPADDDFQ (peptide)
peptide: DTDLDVEAIA[Aze]YIPADDDFQ
EGLN1 [1]
  Activity (%)*: 7.96%
EGLN2 [2]
  Activity (%)*: 2.81%
EGLN3 [3]
  Activity (%): 14.8%

B17: DTDLDAEATA8YIPADDDFQ (peptide)
peptide: DTDLDAEATA[Aze]YIPADDDFQ
EGLN1 [1]
  Activity (%)*: 7.6%
EGLN2 [2]
  Activity (%)*: 1.55%

B18: DTDLDTEAVA8YIPADDDFQ (peptide)
peptide: DTDLDTEAVA[Aze]YIPADDDFQ
EGLN3 [3]
  Activity (%): 10.3%

B19: DTDLDCEALApYIPADDDFQ (peptide)
peptide: DTDLDCEALAPYIPADDDFQ
EGLN3 [4]
  Activity (%)*: 75.8%
EGLN1 [5]
  Activity (%)*: 44.7%
EGLN2 [6]
  Activity (%)*: 48.8%

B20: DTDLDLEALA8YIPADDDFQ (peptide)
peptide: DTDLDLEALA[Aze]YIPADDDFQ
EGLN1 [1]
  Activity (%)*: 78.9%
EGLN2 [2]
  Activity (%)*: 62%
EGLN3 [3]
  Activity (%): 169%

B21: DTDLDAEAVA8YIPADDDFQ (peptide)
peptide: DTDLDAEAVA[Aze]YIPADDDFQ
EGLN1 [1]
  Activity (%)*: 10%
EGLN2 [2]
  Activity (%)*: 3.36%
EGLN3 [3]
  Activity (%): 17.2%

B22: DTDLDVEAIApYIPADDDFQ (peptide)
peptide: DTDLDVEAIAPYIPADDDFQ
modifications: not fully specified; printed as DTDLDVEAIApYIPADDDFQ
EGLN3 [4]
  Activity (%)*: 43.3%
EGLN1 [5]
  Activity (%)*: 45.3%
EGLN2 [6]
  Activity (%)*: 36.6%

B23: DTDLDVEAVA8YIPADDDFQ (peptide)
peptide: DTDLDVEAVA[Aze]YIPADDDFQ
EGLN3 [3]
  Activity (%): 20.6%

B24: DTDLDLEALA5YIPADDDFQ (peptide)
peptide: DTDLDLEALA[b‑thioproline]YIPADDDFQ
EGLN1 [1]
  Activity (%)*: 8.93%
EGLN2 [2]
  Activity (%)*: 7.9%
EGLN3 [3]
  Activity (%): 11.1%

B25: DTDLDSEALApYIPADDDFQ (peptide)
peptide: DTDLDSEALAPYIPADDDFQ
modifications: not fully specified; printed as DTDLDSEALApYIPADDDFQ
EGLN3 [4]
  Activity (%)*: 61.3%
EGLN1 [5]
  Activity (%)*: 34.7%
EGLN2 [6]
  Activity (%)*: 23.8%

B26: DTDLDLEAVApYIPADDDFQ (peptide)
peptide: DTDLDLEAVAPYIPADDDFQ
modifications: not fully specified; printed as DTDLDLEAVApYIPADDDFQ
EGLN3 [4]
  Activity (%)*: 117%
EGLN1 [5]
  Activity (%)*: 99.2%
EGLN2 [6]
  Activity (%)*: 86.8%

B27: DTDLDVEAFA8YIPADDDFQ (peptide)
peptide: DTDLDVEAFA[Aze]YIPADDDFQ
EGLN1 [1]
  Activity (%)*: 21.2%
EGLN2 [2]
  Activity (%)*: 13.9%
EGLN3 [3]
  Activity (%): 24.5%

B28: DTDLDVEAFApYIPADDDFQ (peptide)
peptide: DTDLDVEAFAPYIPADDDFQ
modifications: not fully specified; printed as DTDLDVEAFApYIPADDDFQ
EGLN3 [4]
  Activity (%)*: 44.2%
EGLN1 [5]
  Activity (%)*: 34.1%
EGLN2 [6]
  Activity (%)*: 37.5%

From patent publication US20080113383A1 (FIBRO GEN, published 2008)
